These results are taken from article PMC5538626, “Structural and functional analysis of the GABARAP interaction motif (GIM)” (EMBO Reports, 2017).

For assay [1], the target named is LC3B (for ITC and NMR) (human) (UniProt Q9GZQ8). Put plainly: ITC; peptide 0.4 mM titrated into 0.020 mM LC3/GABARAP protein in 26 steps, 25°C; 50 mM Na2HPO4, 100 mM NaCl, pH 7.0; one-site model. On the technique in general: In ITC the heat of successive injections is recorded.
For assay [2], the target named is GABARAP (for ITC and NMR) (human) (UniProt O95166). The description is as above.
GABARAP (for ITC and NMR) (human), sequence (O95166 whole entry): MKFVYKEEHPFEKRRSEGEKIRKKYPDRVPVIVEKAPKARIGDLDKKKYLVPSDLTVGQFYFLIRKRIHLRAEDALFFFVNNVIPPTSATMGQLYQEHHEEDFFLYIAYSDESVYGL

In assay [1], “PLEKHM1‐LIR N637G peptide (ITC) (from UniProt Q9Y4G2 629-642)” yielded a Ka of 20000 M⁻¹, a Kd of 50 µM and a dH of -1.4 kcal/mol. Also, in assay [2], the Ka came to 130000 M⁻¹, the Kd worked out at 7.75 µM, the dH was -6.7 kcal/mol and the stoichiometry N amounted to 1.17.

Take “PLEKHM1‐LIR VNV‐CIL peptide (ITC) (from UniProt Q9Y4G2 629-642)”: in assay [1], the Ka was 3.03e+06 M⁻¹, the Kd is 0.33 µM, the dH was -7.9 kcal/mol and the stoichiometry N turned out to be 1.06. In assay [2], this substance yielded a Ka of 1.13e+07 M⁻¹, an equilibrium dissociation constant (Kd) of 0.09 µM, a dH of -9.2 kcal/mol and a stoichiometry N of 1.07.

As a reminder, the Kd is a measure of binding affinity in units of concentration. For orientation: stoichiometry N means a count of units in the complex or per binding partner.
